Among the data in article PMC3625974 (Structure (London, England : 1993), 2012) are Kd and stoichiometry N (TorT per TorSS (2:2)) values, retold here.

For one experiment, the target named is TorT (vpTorT) (Vibrio parahaemolyticus, UniProt Q87ID2). The experiment can be described thus: ITC. The class given is binding.
The target in a further experiment is TorS (Escherichia coli) (UniProt P39453). Particulars: cited from earlier work.
Experiment [1] has as its target isolated vpTorSS sensor domain, GSGS-TorS(51-323) (V. parahaemolyticus). As to the kind of experiment: native gel or EMSA + SEC. For orientation: Mobility shift assays separate free from complexed probe on a gel.
Experiment [2] has the same target. As to the kind of experiment: AUC.
The target of experiment [3] is vpTorSS-TorSS dimer: two copies of vpTorSS (51-323) fused via a flexible linker [LN(SG)10A3] (V. parahaemolyticus). As to the kind of experiment: AUC.

Sequence of TorT (P38683 19-342): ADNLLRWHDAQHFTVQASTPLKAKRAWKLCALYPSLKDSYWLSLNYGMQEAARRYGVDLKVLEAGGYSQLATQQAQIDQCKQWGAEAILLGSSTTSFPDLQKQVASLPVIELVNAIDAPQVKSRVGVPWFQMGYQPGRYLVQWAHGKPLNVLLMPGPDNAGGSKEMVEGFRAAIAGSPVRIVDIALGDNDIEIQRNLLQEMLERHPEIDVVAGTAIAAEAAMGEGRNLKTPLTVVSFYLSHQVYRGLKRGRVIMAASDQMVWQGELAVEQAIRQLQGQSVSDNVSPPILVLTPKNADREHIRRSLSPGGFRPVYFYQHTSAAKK

For `C[N+](C)(C)[O-]` [TMAO, trimethylamine-N-oxide], the affinity at TorT (vpTorT), expressed as Kd, was 1360 nM.
In the case of TorT (from UniProt P38683), the Kd (as a rule, the free concentration of one partner at which half of the binding sites on the other are occupied at equilibrium, for simple one-to-one binding) in the experiment with TorS (Escherichia coli) was 10 nM.
On to “periplasmic binding protein TorT from V. parahaemolyticus, GSGS-TorT(29-329) (natural protein)”, for which the stoichiometry N (TorT per TorSS (2:2)) in experiment [1] and in experiment [2] was 1 in each case. In experiment [3], this molecule gave a dissociation constant (Kd) of 1790 nM.
